The record followed here is US20130039916A1 (Merck Sharp & Dohme, published 2013).

In assay [1] the target is T1, "Elastikine" human IL-23 (single chain FLAG-tag:GLU-tag:human p40:elasti-linker:human p19, expressed in 293T … (human, UniProt P29460 23-328)). Kind of assay: cell-based or functional assay.
Assay [2] deals with T2, "Non-linked" human IL-23 (human p40 coexpressed in 293T cells with human p19:FLAG-tag peptide) (human, UniProt P29460 23-328).
T2 sequence 1: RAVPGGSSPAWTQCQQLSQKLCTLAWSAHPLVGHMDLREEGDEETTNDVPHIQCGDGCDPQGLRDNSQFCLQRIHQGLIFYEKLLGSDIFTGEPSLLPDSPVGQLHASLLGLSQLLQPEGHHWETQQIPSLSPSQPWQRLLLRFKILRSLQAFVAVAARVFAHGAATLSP
T2 sequence 2: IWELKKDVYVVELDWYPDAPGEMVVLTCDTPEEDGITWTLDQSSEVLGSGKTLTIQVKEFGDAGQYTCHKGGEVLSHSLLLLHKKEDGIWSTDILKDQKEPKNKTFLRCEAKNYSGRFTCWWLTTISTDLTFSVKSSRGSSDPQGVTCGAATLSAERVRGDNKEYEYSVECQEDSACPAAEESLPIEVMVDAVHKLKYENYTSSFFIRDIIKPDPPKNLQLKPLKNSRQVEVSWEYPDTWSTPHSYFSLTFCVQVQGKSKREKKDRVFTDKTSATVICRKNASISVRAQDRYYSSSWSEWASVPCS
Kind of assay: cell-based or functional assay.

Assay [3] addresses T3, non-tagged, non-linked native human IL-23p19/p40 coexpressed in SF9 cells (eBioscience CAT No. 34-8239) (human, UniProt P29460 23-328).
T3 sequence 1: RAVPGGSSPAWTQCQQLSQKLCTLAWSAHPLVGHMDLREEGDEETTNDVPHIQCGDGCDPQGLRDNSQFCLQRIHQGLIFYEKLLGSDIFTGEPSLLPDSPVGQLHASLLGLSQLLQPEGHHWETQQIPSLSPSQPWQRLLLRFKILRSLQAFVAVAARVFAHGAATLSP
T3 sequence 2: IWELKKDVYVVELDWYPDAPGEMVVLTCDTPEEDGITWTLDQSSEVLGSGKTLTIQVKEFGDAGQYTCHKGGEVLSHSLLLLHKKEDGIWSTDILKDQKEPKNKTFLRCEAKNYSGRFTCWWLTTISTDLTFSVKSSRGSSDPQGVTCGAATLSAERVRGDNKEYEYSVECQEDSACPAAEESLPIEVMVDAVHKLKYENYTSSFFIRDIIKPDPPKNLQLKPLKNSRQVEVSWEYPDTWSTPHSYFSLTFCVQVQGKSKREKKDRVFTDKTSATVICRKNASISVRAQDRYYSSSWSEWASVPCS
Put plainly: cell-based or functional assay.

For assay [4], the target named is T1, "Elastikine" human IL-23 (single chain …). Kind of assay: KinExA, solution equilibrium. On the procedure:
(§1) The equilibrium dissociation constant (Kd) for anti human IL-23 antibodies is determined using the KinExA 3000 instrument. Sapidyne Instruments Inc., Boise Id., USA KinExA uses the principle of the Kinetic Exclusion Assay method based on measuring the concentration of uncomplexed antibody in a mixture of antibody, antigen and antibody-antigen complex. The concentration of free antibody is measured by exposing the mixture to a solid-phase immobilized antigen for a very brief period of time. In practice, this is accomplished by flowing the solution phase antigen-antibody mixture past antigen-coated particles trapped in a flow cell. Data generated by the instrument are analyzed using custom software. Equilibrium constants are calculated using a mathematical theory based on the following assumptions:
(§2) 98 micron PMMA particles (Sapidyne, Cat No. 440198) are coated with biotinylated rhIL-23 according to Sapidyne “Protocol for coating PMMA particles with biotinylated ligands having short or nonexistent linker arms”. To make biotinylated rhIL-23, EZ-link TFP PEO-biotin (Pierce, Cat. No. 21219) is used according to manufacturer's recommendations (Pierce bulletin 0874). Experimental procedures are done according to the KinExA 3000 manual.
(§3) KinExA experiments are performed essentially as described at Example 3 of U.S. Patent Application Publication No. 2007/0048315.

Assay [5] deals with T2, "Non-linked" human IL-23 (human p40 …). Put plainly: KinExA, solution equilibrium. As to the method: as §1, §2, §3
Assay [6] has as its target T3, non-tagged, non-linked native human …. Put plainly: KinExA, solution equilibrium. On the procedure: as §1, §2, §3
For assay [7], the target named is "Elastikine" human IL-23 (single chain FLAG-tag:GLU-tag:human p40:elasti-linker:human p19, expressed in 293T … (human, UniProt P29460 23-328)). Kind of assay: cell-based or functional assay. The source holds these as a separate data set.
Assay [8] deals with T3, non-tagged, non-linked native human …. Put plainly: BIAcore SPR, antibody immobilised on CM5 chip, IL-23 in solution. On the procedure: BIAcore determinations are performed essentially as described at Example 4 of U.S. Patent Application Publication No. 2007/0048315. Briefly, ligands (anti-IL-23 mAbs) are immobilized on a BIAcore CM5 sensor chip using standard amine-coupling procedure. IL-23 (various forms) is diluted in PBS to produce various concentrations. Kinetic constants for the various interactions are determined using BIAevaluation software 3.1. The Kd is determined using the calculated dissociation and association rate constants. In certain experiments, proteins are used at the following concentrations: anti-IL-23 mAb hu7G10 in PBS at 0.33 mg/mL; anti-IL-23 mAb hu6H12 in PBS at 0.2 mg/mL; bac-wt human IL-23 in PBS at 0.30 mg/mL; eBioscience human IL-23 in PBS at 0.10 mg/mL; N222Q human IL-23 in PBS at 0.33 mg/mL.

For assay [9], the target named is T4, human IL-23 (form not stated) (human, UniProt P29460 23-328).
T4 sequence 1: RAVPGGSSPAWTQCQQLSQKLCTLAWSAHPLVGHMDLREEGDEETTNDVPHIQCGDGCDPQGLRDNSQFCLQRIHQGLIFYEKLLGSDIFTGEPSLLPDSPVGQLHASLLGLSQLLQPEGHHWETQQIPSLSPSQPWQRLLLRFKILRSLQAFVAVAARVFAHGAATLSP
T4 sequence 2: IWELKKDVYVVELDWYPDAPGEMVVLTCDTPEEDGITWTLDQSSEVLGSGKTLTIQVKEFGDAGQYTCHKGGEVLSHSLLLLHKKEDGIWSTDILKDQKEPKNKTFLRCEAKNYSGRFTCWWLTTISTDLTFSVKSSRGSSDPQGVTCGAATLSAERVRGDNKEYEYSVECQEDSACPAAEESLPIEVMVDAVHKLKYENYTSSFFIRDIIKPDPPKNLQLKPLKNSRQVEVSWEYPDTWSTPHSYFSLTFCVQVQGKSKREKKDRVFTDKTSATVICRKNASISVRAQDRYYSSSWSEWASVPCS
Kind of assay: cell-based or functional assay.

Values joined by “and” are separate entries in the source; they are usually repeats but may differ in a detail not shown here. Equal entries are not always repeated.

B1: mouse anti-human IL-23p19 antibody 39G2 (antibody, V domains shown)
VH: QVQLQQPGAELVRPGASVKLSCKASGYSFTSSWMNWVKQRPGQGLEWIGMIHPSDSETRTNQKFKDKATLTVDKSSSTAYMQLSSPTSEDSAVYYCARGMITAPTVYWGQGTLVTVSA
VL: DIVLTQSPASLAVSLGQRATISCRASKSVSTSAYSYFHWYQQKPGQPPKLLIYLASNLESGVPARFSGSGSGTDFTLNIHPVEEEDAATYYCQHSRELPWTFGGGTKLEITP
notes: also called m39G2
Consider B1, for which the “IC50 (pM), blocking of Ba/F3 cell proliferation” value (“IC50 (pM), blocking” for short) was 9 pM and 5 pM in assay [1]; 67 pM in assay [2]; 11 pM in assay [3]. Further, the dissociation constant Kd in [4] is 0.019 nM; in [5], 0.034 nM; in assay [6], 0.62 nM.

B2: mouse anti-human IL-23p19 antibody 35F12 (antibody, V domains shown)
VH: QVQLQQPGAELMRPGASVRLSCKASGYSFTTSWMNWVKQRPGQGLEWIGMIHPSDSETRLNQNFKDKATLTVDRSSSTAYMQLNSPTSEDSAVYYCARGMITAPSVYWGQGTLVTVSA
VL: DIVLTQSPASLAVSLGQRATISCRASKSVSTSAYSYFHWYQQKPGQPPKLLIYLASNLESGVPARFSGSGSGTDFTLNIHPVEEGDAATYYCQHSRELPWTFGGGTKLEITR
notes: also called m35F12
For B2, the “IC50 (pM), blocking” value is 15 pM and 5 pM in [1]; 73 pM in [2]; 12 pM in [3]. Moreover, the values for the dissociation constant (Kd) in assay [4] and in assay [6] were 0.053 nM and > 0.7 nM, respectively.

B3: mouse anti-human IL-23p19 antibody 3D7 (antibody, V domains shown)
VH: QVQLQQSGPELVKPGASVKISCKASGYSFTSYYIHWVKQRPGQGLEWIGWIFPGSGNTKYNEKFKGKATLTADTSSTTAYMQLSSLTSEASAVYFCAREGLHYFGLYAMDYWGHGTSVTVSS
VL: DIQMTQTTSSLSASLGDRVTISCSASQGISNYLNWFQQKPDGTVKLLIYYTSSLHSGVPSRFSGSGSGTDYSLTISNLEPEDIATYYCQQYSKLPYTFGGGTKLEIKR
notes: also called m3D7
Turning to B3, the “IC50 (pM), blocking” value in assay [1] turned out to be 3 pM; in assay [2] it was 37 pM; in assay [3], 2 pM. The molecule also displayed a Kd in [4] of 0.00084 nM.

B4: mouse anti-human IL-23p19 antibody 7G10 (antibody, V domains shown)
VH: EVQLQQSGPELVKPGASVKMSCKASGYTFTSNVMHWVKQKPGQGLEWIGYINPYNDGTKYNEKFKGKATLTSDKSSSTAYMELSSLTSEDSAVYYCARNWDVAYWGQGTLVTVSA
VL: DIVMTQSPATLSVTPGDRVSLSCRASQSISDYLHWYRQKSHESPRLLIKYASQSISGIPSRFSGSGSGSDFTLSINSVEPEDVGVYYCQNGHSFPFTFGSGTKLEIKR
Take B4: the “IC50 (pM), blocking” value in assay [1] was 22 pM and 18 pM; in [2], 3000 pM.

B5: mouse anti-human IL-23p19 antibody 13B5 (antibody, V domains shown)
VH: EVQLQQSGPELVKPGASVKMSCKASGYTFTRYLMHWVKQKPGQGLEWIGYINPYNDGTNYNEKFKGKATLTSDKSSSTAYMELSSLTSEDSAVYYCARNWDVGGYWGQGTTLTVSS
VL: DIVMTQSPATLSVTPGDRVSLSCRASQSISDYLHWYQQKSHESPRLLIKYASQSISGIPSRFSGSGSGSDFTLSINSVEPEDVGVYYCQNGHSFPFTFGSGTKLEIKR
notes: also called m13B5
Consider B5, for which the “IC50 (pM), blocking” value in assay [1] was 7 pM and 5 pM; in [2], 113 pM; in [3] it was 31 pM. Moreover, the Kd was found to be 0.022 nM in assay [4] and 0.055 nM in [6].

B6: mouse anti-human IL-23p19 antibody 13F11 (antibody, V domains shown)
VH: EVQLQQSGPELVKPGASVKMSCKASGHTLTRYLMHWVQQKPGQGLEWIGYINPYNDGTKYNEKFKGKATLTSDKSSSTAYMELSSLTSEDSAVYYCARNWDVAYWGQGTLVTVSA
VL: DIVMTQSPATLSVTPGDRVSLSCRASQTISDYLHWYQQKSHESPRLLIKYASQSISGIPSRFSGSGSGSHFTLSINSVEPEDVGVYYCQNGHSFPFTFGSGTKLEIKR
notes: also called m13F11
Regarding B6, in assay [4], the Kd was 0.011 nM.

B7: mouse anti-human IL-23p19 antibody 6H12 (antibody, V domains shown)
VH: EVHLQQSGPELVKPGASVKMSCKASGYTFNRYLIHWVKQKPGQGLEWIGYINPNNDGTNYNEKFKGKATLTSDKSSSTAYMELSSLTSEDSAVYYCAANWDQAYWGQGTLVTVSA
VL: DIVMTQSPATLSVTPGDRVSLSCRASQSISDYLHWYQQKSHESPRLLIKYTSQSISGIPSRFSGSGSGSDFTLSINSVEPEDVGVYYCQNGHSFPFTFGSGTKLEIKR
notes: also called m6H12
Turning to B7, the “IC50 (pM), blocking” value in assay [1] is 11 pM and 9 pM; in assay [2], 1500 pM; in assay [3], 1300 pM and 500 pM. Further, the Kd in assay [4] was 0.054 nM and 0.048 nM; in assay [5] it was > 1.2 nM; in assay [6], > 1 nM.

B8: mouse anti-human IL-23p19 antibody 33B12 (antibody, V domains shown)
VH: QVQLQQSGAELARPGASVKLSCKASGYTFTSYSLKWVKQRTGQGLEWIGEIHPRSGNTHYNEKFKGKATLTADKSSSTAYMDLRSLTSEDSAVYFCATNWDLGYWGQGTTITVSS
VL: DIVLTQSPATLSVTPGDRVSLSCRASQSISDYLHWFQQRSHESPRLLIKYASQSISGIPSRFSGSGSGSDFTLSINSVEPEDVGVYYCQNGHSFPFTFGSGTKLEIKR
notes: also called m33B12
As for B8, the “IC50 (pM), blocking” value in assay [1] was 4 pM and 3 pM; in assay [2], 193 pM; in [3], 57 pM. Also, binding in [4] was put at a Kd of 0.0068 nM.

B9: humanized anti-human IL-23p19 antibody 7G10 (antibody, human IgG1, kappa, V domains shown)
VH: QVQLVQSGAEVKKPGASVKVSCKASGYTFTSNVMHWVRQAPGQGLEWMGYINPYNDGTKYNEKFKGRVTMTTDTSTSTAYMELRSLRSDDTAVYYCARNWDVAYWGQGTLVTVSS
VL: DIQMTQSPSSLSASVGDRVTITCRASQSISDYLHWYQQKPGKAPKLLIYYASQSISGVPSRFSGSGSGTDFTLTISSLQPEDFATYYCQNGHSFPFTFGQGTKVEIKR
notes: Full-length humanized antibody, human IgG1 / kappa; also called hu7G10; hum7G10
B9: the “IC50 (pM), blocking” value in assay [7] was 29 pM; in assay [2], 10000 pM; in [3], 7800 pM. The dissociation constant (Kd) in [8] is 3.2 nM and 9 nM.

B10: humanized antibody 17G8 with R98A substitution in the heavy chain of SEQ ID NO: 129 (antibody, V domains shown)
VH: QVQLVQSGAEVKKPGASVKVSCKASGYTFTSYGIKWVRQAPGQGLEWMGEIFPRSGQTIYNEKFKGRVTMTTDTSTSTAYMELRSLRSDDTAVYYCAANWDLDYWGQGTLVTVSS
VL: DIQMTQSPSSLSASVGDRVTITCRASQSISDYLHWYQQKPGKAPKLLIYYASQSISGVPSRFSGSGSGTDFTLTISSLQPEDFATYYCQNGHSFPYTFGQGTKVEIKR
Take B10: in [9], the “fold decrease of IC50 in the Ba/F3 proliferation bioassay against the heavy chain of SEQ ID NO: 129 without R98A” value was > 1000 fold.
